This is an account of results in patent US10961298 (GOVERNMENT OF THE UNITED STATES AS REPRESENTED BY THE …, dated 2021).

Experiment [1] addresses T1, Hcp peptide TSSSVGGHTAERVEH (Acinetobacter baumannii).
T1 peptide: TSSSVGGHTAERVEH
In words: peptide ELISA, peptide on plate, anti-mouse HRP, OD450. (In general: ELISA stands for enzyme-linked immunosorbent assay.)

For experiment [2], the target named is T2, Hcp peptide HTAERVEHSDMVFVK (Acinetobacter baumannii).
T2 peptide: HTAERVEHSDMVFVK
The experiment is described as above.

The target of experiment [3] is T3, Hcp peptide HSDMVFVKDLDATSP (Acinetobacter baumannii).
T3 peptide: HSDMVFVKDLDATSP
The description is as above.

Experiment [4] addresses T4, Hcp peptide KDLDATSPKLWEACS (Acinetobacter baumannii).
T4 peptide: KDLDATSPKLWEACS
Described as above.

Experiment [5] concerns the target T5, Hcp peptide PKLWEACSAGYTFDE (Acinetobacter baumannii).
T5 peptide: PKLWEACSAGYTFDE
The description is as above.

For experiment [6], the target named is T6, Hcp peptide SAGYTFDEVQIDFYR (Acinetobacter baumannii).
T6 peptide: SAGYTFDEVQIDFYR
Described as above.

Experiment [7] has as its target T7, Hcp peptide EVQIDFYRANGDKRI (Acinetobacter baumannii).
T7 peptide: EVQIDFYRANGDKRI
The experiment is described as above.

Experiment [8] deals with T8, Hcp peptide RANGDKRIKYLQIKL (Acinetobacter baumannii).
T8 peptide: RANGDKRIKYLQIKL
Described as above.

In experiment [9] the target is T9, Hcp peptide IKYLQIKLKHVLVSS (Acinetobacter baumannii).
T9 peptide: IKYLQIKLKHVLVSS
Described as above.

In experiment [10] the target is T10, Hcp peptide LKHVLVSSVTPTVNE (Acinetobacter baumannii).
T10 peptide: LKHVLVSSVTPTVNE
The description is as above.

Experiment [11] has as its target T11, Hcp peptide SVTPTVNEEGVPTEA (Acinetobacter baumannii).
T11 peptide: SVTPTVNEEGVPTEA
The experiment is described as above.

The target of experiment [12] is T12, Hcp peptide EEGVPTEAFGLKYAA (Acinetobacter baumannii).
T12 peptide: EEGVPTEAFGLKYAA
Described as above.

In experiment [13] the target is T13, Hcp peptide AFGLKYAAVEWTYNQ (Acinetobacter baumannii).
T13 peptide: AFGLKYAAVEWTYNQ
The description is as above.

The target in experiment [14] is T14, Hcp peptide AVEWTYNQQDINGTA (Acinetobacter baumannii).
T14 peptide: AVEWTYNQQDINGTA
The experiment is described as above.

In experiment [15] the target is T15, Hcp peptide QQDINGTAKGAVTKK (Acinetobacter baumannii).
T15 peptide: QQDINGTAKGAVTKK
Described as above.

In experiment [16] the target is T16, Hcp peptide AKGAVTKKWSLSNNT (Acinetobacter baumannii).
T16 peptide: AKGAVTKKWSLSNNT
Described as above.

For experiment [17], the target named is T17, Hcp peptide KWSLSNNTASYAA (Acinetobacter baumannii).
T17 peptide: KWSLSNNTASYAA
Described as above.

For experiment [18], the target named is T18, Hcp peptide #1 MKDIYVEFRGKYKVD (Acinetobacter baumannii).
T18 construct: also called amino terminus peptide; N-terminus peptide
T18 peptide: MKDIYVEFRGKYKVD
The experiment is described as above.

Experiment [19] concerns the target T19, Hcp peptide FRGKYKVDGESRDSE (Acinetobacter baumannii).
T19 peptide: FRGKYKVDGESRDSE
Described as above.

For experiment [20], the target named is T20, Hcp peptide DGESRDSEHKGWLEV (Acinetobacter baumannii).
T20 peptide: DGESRDSEHKGWLEV
The experiment is described as above.

Experiment [21] has as its target T21, Hcp peptide EHKGWLEVNSWSHN (Acinetobacter baumannii).
T21 peptide: EHKGWLEVNSWSHN
Described as above.

For experiment [22], the target named is T22, Hcp peptide VNSWSHNIRQPKSAT (Acinetobacter baumannii).
T22 peptide: VNSWSHNIRQPKSAT
The experiment is described as above.

The target of experiment [23] is T23, Hcp peptide IRQPKSATSSSVGGH (Acinetobacter baumannii).
T23 peptide: IRQPKSATSSSVGGH
Described as above.

Experiment [24] deals with T24, Hcp (hemolysin co-regulated protein, T6SS needle protein) of Acinetobacter baumannii AB5075, recombinant, … (Acinetobacter baumannii (strain AB5075)).
T24 construct: Cloned NcoI/XhoI into pET22b, overexpressed in E. coli and purified on a nickel column; also called full-length Hcp protein; purified Hcp protein
T24 chain: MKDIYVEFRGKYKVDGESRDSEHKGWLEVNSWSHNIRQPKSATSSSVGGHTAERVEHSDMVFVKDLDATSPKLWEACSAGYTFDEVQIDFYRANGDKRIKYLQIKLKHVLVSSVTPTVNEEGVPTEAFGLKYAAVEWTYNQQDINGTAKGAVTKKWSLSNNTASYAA
In words: screening of hybridoma clones for binding to Hcp antigen.

B1: 13F7 anti-Hcp monoclonal antibody (antibody, V domains shown)
VH: EVQLQESGGGLVQPGGSMKLSCVVSGFIFSSYWMSWVRQSPEKGLEWLAEIRLKSDNYVTLYAESVKGKFTISRDDSKSRLFLQMNTLRAEDTGIYYCTRSYHALDYWGQGTSVTVSS
VL: DIVMAQSPSSLNVSAGDKVTMSCKSSQSLLNSGNQRNYLAWYQQKPGQPPKLLIYGASTRESGVPDRFTGSGSGTDFTLTISSVQAEDLAVYYCQNDHIYPFTFGSGTKLEIK
notes: Mouse monoclonal antibody from a hybridoma; also called αHcp; 13F7 αHcp antibody
B1: the binding result in [1], in experiment [2], in [3], in experiment [4], in experiment [5] and in experiment [6] was “no binding” throughout. Moreover, the binding result in experiment [7], in [8], in [9], in [10], in [11] and in experiment [12] was “no binding” throughout. Further, the binding result was “no binding” in experiment [13]; “no binding” in experiment [14]; “no binding” in [15]; “no binding” in experiment [16]; “no binding” in experiment [17]; “binds” in experiment [18]. For the same molecule, the binding result in experiment [19] is recorded as “no binding”; in experiment [20] it was “no binding”; in experiment [21], “no binding”; in [22], “no binding”; in experiment [23], “no binding”; in experiment [24] it was “binds”.
